Experimental data reported in paper PMC4889933 (Nucleic Acids Research, 2016).

T1: LigD protein of B. subtilis (LigD_(Bsub)), C-terminal His6 (B. subtilis, UniProt O34398 1-611)
T1 sequence (looked up): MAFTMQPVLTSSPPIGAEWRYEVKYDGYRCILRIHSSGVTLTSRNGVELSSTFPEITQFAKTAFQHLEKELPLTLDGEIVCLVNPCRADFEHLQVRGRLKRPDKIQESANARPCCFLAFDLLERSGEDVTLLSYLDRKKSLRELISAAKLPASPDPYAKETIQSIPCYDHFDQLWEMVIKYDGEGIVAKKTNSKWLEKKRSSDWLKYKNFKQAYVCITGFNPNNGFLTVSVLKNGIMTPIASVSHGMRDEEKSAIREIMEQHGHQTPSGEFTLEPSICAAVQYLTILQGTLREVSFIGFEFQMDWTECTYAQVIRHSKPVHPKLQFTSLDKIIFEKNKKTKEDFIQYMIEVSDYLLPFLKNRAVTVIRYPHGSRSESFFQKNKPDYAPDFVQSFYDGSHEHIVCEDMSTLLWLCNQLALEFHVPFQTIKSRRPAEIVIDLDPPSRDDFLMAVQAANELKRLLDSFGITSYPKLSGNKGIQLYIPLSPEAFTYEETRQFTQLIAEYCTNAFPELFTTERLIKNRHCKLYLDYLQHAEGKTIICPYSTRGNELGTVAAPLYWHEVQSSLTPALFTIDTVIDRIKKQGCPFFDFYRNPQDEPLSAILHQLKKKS

B1: Ku core, Ku_(Bsub) truncated of the entire C-terminal domain (M18 to P256 of NP_389224.1), N-terminal His6 (domain or fragment, B. subtilis 168, UniProt O34859 18-256, looked up)
chain: MHTMWKGSISFGLVNIPIKLYAATEDKDIKLRSLHKEDHAPIKYEKVCTNCEKTLSPDEIVKGYEYVKGKYVVLTDEDLKSLKQEHEEKAVEIVDFVQLQEIDPIYFNRSYFVGPGDNGTKAYTLLREALRSTGKIGIANMTIRSKQQLAILRVYENCIVMESIHYPDEVRSAAQVPGVPDQSNVNDKELQTAITLIDELTAKFEPEKYEDTYRQALLQRVNDKLENKETAVTPDKAPP
B2: KuΔexCter, Ku_(Bsub) truncated of the extended Cter (M18 to P277 of NP_389224.1), N-terminal His6 (domain or fragment, B. subtilis 168, UniProt O34859 18-277, looked up)
chain: MHTMWKGSISFGLVNIPIKLYAATEDKDIKLRSLHKEDHAPIKYEKVCTNCEKTLSPDEIVKGYEYVKGKYVVLTDEDLKSLKQEHEEKAVEIVDFVQLQEIDPIYFNRSYFVGPGDNGTKAYTLLREALRSTGKIGIANMTIRSKQQLAILRVYENCIVMESIHYPDEVRSAAQVPGVPDQSNVNDKELQTAITLIDELTAKFEPEKYEDTYRQALLQRVNDKLENKETAVTPDKAPPREDVIDLVSALQASIDRTRRP

Assays:
cross-linking = target: the molecule itself; test: cross-linking
[1] = target: T1, LigD protein of B. subtilis …; test: SPR

| Binder | stoichiometry N (cross-linking) | Kd [1] [µM] |
| --- | --- | --- |
| B1 | 2 |  |
| B2 | 2 | 11 |
